Target: T1, BSA-Man (glycoprotein bearing 12 glycosylated sites) (bovine (from the name BSA), UniProt P02769 25-607, 12 glycosylated sites (mannose glycans, up to 12 glycans displayed))
T1 construct: BSA (serum albumin) carrying mannose glycans; A neoglycoprotein; also called Man-BSA
Assay: SPR; BSA-Man titrated over a DC-SIGN S-ECD oriented surface (StrepTactin-functionalised CM3 chip, Biacore T200); 25 mM Tris pH 8, 150 mM NaCl, 4 mM CaCl2, 0.05% P20; steady state affinity model; apparent KD for the surface
Details: both partners purified

T1 sequence (P02769 25-607): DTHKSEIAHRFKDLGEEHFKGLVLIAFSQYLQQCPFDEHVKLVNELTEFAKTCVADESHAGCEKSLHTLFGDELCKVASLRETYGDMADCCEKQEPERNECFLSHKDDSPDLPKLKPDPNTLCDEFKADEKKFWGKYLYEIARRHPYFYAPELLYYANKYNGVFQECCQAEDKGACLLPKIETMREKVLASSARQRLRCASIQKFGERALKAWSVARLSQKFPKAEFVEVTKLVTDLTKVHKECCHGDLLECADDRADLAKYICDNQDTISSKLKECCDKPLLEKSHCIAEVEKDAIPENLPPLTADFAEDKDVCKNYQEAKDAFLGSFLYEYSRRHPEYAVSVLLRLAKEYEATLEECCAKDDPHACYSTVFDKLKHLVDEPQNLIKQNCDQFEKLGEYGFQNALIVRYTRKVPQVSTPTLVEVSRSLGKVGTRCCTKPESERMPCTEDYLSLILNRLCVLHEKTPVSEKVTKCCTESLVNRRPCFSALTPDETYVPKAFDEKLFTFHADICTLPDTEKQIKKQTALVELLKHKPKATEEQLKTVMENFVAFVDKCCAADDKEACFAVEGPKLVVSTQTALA

B1: DC-SIGN S-ECD (DC-SIGN extracellular domain tagged at its N-terminus with a StreptagII) (domain or fragment, UniProt Q9NNX6 66-404, looked up)
chain: SISQEQSRQDAIYQNLTQLKAAVGELSEKSKLQEIYQELTQLKAAVGELPEKSKLQEIYQELTRLKAAVGELPEKSKLQEIYQELTWLKAAVGELPEKSKMQEIYQELTRLKAAVGELPEKSKQQEIYQELTRLKAAVGELPEKSKQQEIYQELTRLKAAVGELPEKSKQQEIYQELTQLKAAVERLCHPCPWEWTFFQGNCYFMSNSQRNWHDSITACKEVGAQLVVIKSAEEQNFLQLQSSRSNRFTWMGLSDLNQEGTWQWVDGSPLLPSFKQYWNRGEPNNVGEEDCAEFSGNGWNDDKCNLAKFWICKKSAASCSRDEEQFLSPAPATPNPPPA
notes: DC-SIGN (Dendritic Cell specific ICAM-3 Grabbing Non-integrin), extracellular domain, amino acids 66-404; A factor Xa cleavage site lies between the N-terminal StreptagII and the ECD; On the chip the protein was captured by StrepTactin and then covalently fixed with EDC/NHS; source: E. coli Rosetta (DE3), inclusion bodies, purified (StrepTactin column, Mannan-agarose, Superose-12); not shown: …
  Kd: 5 nM
